Consider 41 sequences from the nanobody polyreactivity screen of Harvey et al. (2022).

This data set in a line: yeast display, Sf9 membrane polyspecificity reagent, FACS + sequencing; frameworks hold sequencing errors. The gist of the method:
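Galactose-induced (36–48 hours) yeast carrying a synthetic nanobody display library were exposed to 10% biotinylated, detergent-solubilized Sf9 membrane reagent at 4 °C for 1 hour. FACS followed streptavidin microbead enrichment, using low and high (top ~1%) gates for expression (anti-HA) and reagent binding (streptavidin). Colony PCR, MiSeq 2 × 250 sequencing and CDR-length filtering followed. Labels for polyreactivity reflect the gate of origin.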
For the sequence “QVQLVESGGGLVQAGGSLRLSCAASGRTFHRYAMGWYRQAPGKERELVAAINWRGGSTYYADSVKGRFTISRDNAKNTVYLQMNILKPEDTEVYYCAAKTTTPYRYIYYYWGQGTQVTVSS”, the “polyreactivity (PSR sort gate)” value is on record as “high polyreactivity”. For “QVQLVESGGGLVQAGGSLRLSCAASGRTFHRYVMGWYRQAPGKERELVAAITRSGGITYYADSVKGRFTISRDNAKNTVYLQMNSLKPEDNAVYYCAKDDLTASGFDYWGQGTQVTVSS” the value was “low polyreactivity”; for “QVQLVESGGGLVQAGGSLRLSCAASGRTFHSYAMGWYRQAPGKERELVAVITRRGGSTYYADSVKGRFTISRDNAKNTVYLQMNSLKPEDTAVYYCNKGKSYTYDYWGQGTQVTVTS”, “high polyreactivity”; for “QVQLVESGGGLVQAGGSLRLSCAASGRTFHSYAMGWYRQAPGKEWELVAGISWGGTRTTYADSVKGRFTISRDNSKNTVYLQMNSLKPEDTAVYYCNAVYYALGRSPPDYGYWGQGTQVTVSS”, “low polyreactivity”. For “QVQLVESGGGLVQAGGSLRLSCAASGRTFHVYARGWYRQAPGKERELVAAISGRTGSTYYADSVKGRFTISRDNAKNTVYLQMNSLKPEDTAVYYCAARRWSHGTGYGSWGQGTQVTVSS” the value was “high polyreactivity”; for “QVQLVESGGGLVQAGGSLRLSCAASGRTFHYYVMGWYRQAAGKERELVAAISRSGGNTYYADSVKGRFTISRDNAKNTVYLQMNSLKPEDTAVYYCAAALSAYVKWDYYYWGQGTQVTVSS”, “low polyreactivity”. On to “QVQLVESGGGLVQAGGSLRLSCAASGRTFHYYVMGWYRQAPGKERELVAAISRSGGNTYYADSVKGRFTISLDNAKNTVYLQMNSLKPEDTAVYYCAAALSAYVKWDYYYWGQGTQVTVSS”, for which the “polyreactivity (PSR sort gate)” value was “low polyreactivity”. “QVQLVESGGGLVQAGGSLRLSCAASGRTFIFNAMGWYRQAPGKERELVAAISSGGGTNYADSVKWRFTISRDNAKNTVYLQMNSMKPEDTAVYYCAAVPRDHYSYVYDGDKYDYWGQGTQVTVSS”: the “polyreactivity (PSR sort gate)” value is on record as “low polyreactivity”. For “QVQLVESGGGLVQAGGSLRLSCAASGRTFIGNAMGWSRQAPGKERELVAGIDSDGSTNYADSVKGRFTISRDNAKNTVYLQMNSLKPEDTAVYYCAAVQGYRFYEYYYWGQGTQVTVSS” the value was “low polyreactivity”; for “QVQLVESGGGLVQAGGSLRLSCAASGRTFIGYAMGWYRQAPGKERELVAAISSRGGRTYYADSVKGRFTISRDNAKNTVYLQMNSLKPEDTAVYYCAAGRVKHSGYDYWGQGTQVTVSS”, “high polyreactivity”; for “QVQLVESGGGLVQAGGSLRLSCAASGRTFIGYAMGWYRQAPGKERELVAAISSSGGRTYYADSVKGRFTISRDNAKNTVYLQMNSLKPEDTAVYYCNAVRYVLGYSYDYNYWGQGTQVTVSS”, “high polyreactivity”. For “QVQLVESGGGLVQAGGSLRLSCAASGRTFIGYAMGWYRQAPGKERELVAAITSSGGSTYYSDSVKGRFTISRDNAKNTVYLQMNSLKPEDTAVYYCAAGRHSEDNYWGQGTQVTVSS” the value was “high polyreactivity”; for “QVQLVESGGGLVQAGGSLRLSCAASGRTFIKYARGWYRPAPGKERELVAAISRNGGSTNYADSVKGRFTISRDNAKNTVYFQMNSLKPEDTAVYYCAAVGTVSRTVGYNYWGQGTQVTVSS”, “high polyreactivity”; for “QVQLVESGGGLVQAGGSLRLSCAASGRTFIPNAMGWYRQAPGKERELVARITLRGGSTYYADSVKGRFTISRDNAKNTVYLQMNSLKPEDTAVYYCAAVFSRKGLRYDYWGQGTQVTVSS”, “low polyreactivity”.

As for “QVQLVESGGGLVQAGGSLRLSCAASGRTFIPYAMGWYRQAPGKERELVATISRSGGSTYYADSVKGRFTISRDNAKNTVYLQMNSLKPEDSAVYYCAAQWVRKSGREGYWGQGTQVTVSS”, the “polyreactivity (PSR sort gate)” value is on record as “high polyreactivity”.

Take “QVQLVESGGGLVQAGGSLRLSCAASGRTFIRYAMGWYRQAPGKERELVAAISSRGGRTHYADSVKGRFTISRDNAKNTVYLQMNSLKPEDTAVYYCAADLTYVTVPGASYDYWGQGTQVTVSS”: the “polyreactivity (PSR sort gate)” value is “low polyreactivity”. In the case of “QVQLVESGGGLVQAGGSLRLSCAASGRTFISNAMGWYRQAPGKERELVADINGGGSTYYADSVKGRFTISRDNAKNTVYLQINSLKPEDTAVYYCAADVWTLDPDEYDYWGQGTQVTVSS” it was “low polyreactivity”; in that of “QVQLVESGGGLVQAGGSLRLSCAASGRTFITNAMGWSRPAPGKEREFVAAIRGGRGSTYYADSVKGRFTISRDNAKNTVYLQMNSVKPEDTAVYFCAARYWLFPRGYNYWGQGTQVTVSS”, “high polyreactivity”.

Take “QVQLVESGGGLVQAGGSLRLSCAASGRTFIVYAMGWYRQAPGKERELVAAITTSLGRTYYADSVKGRFTISRDNAKNTVYLQMNSLKPEDTAVYYCAADRLDGYSEYYYWGQGTQVTVSS”: the “polyreactivity (PSR sort gate)” value was “low polyreactivity”. For “QVQLVESGGGLVQAGGSLRLSCAASGRTFIYNAMGWYRQAPGKERELVAAISTSGGRTYYADSVKGRFTISRDNAKNTVYLQMNSLKPEDTAVYYCNAVRSYRMDYWGQGTQVTVSS” the value was “high polyreactivity”; for “QVQLVESGGGLVQAGGSLRLSCAASGRTFIYYAMGWYTQAPRKERDYVAIITWNGTSTNYADSVKGRFTISRDNAKNTVYLQMNSLYPEDTAVYYCAASFWTDYYRYDYWGQGTQVTVSS”, “low polyreactivity”; for “QVQLVESGGGLVQAGGSLRLSCAASGRTFKAYAMGWYRQAPGKERELVAAISYSTTSTYYADSVKGRFTISRDNAKNTVYLQMNSLKPEDTAVYYCAVDYIIWYDGYLLYYWGQGTQVTVSS”, “low polyreactivity”.

As to “QVQLVESGGGLVQAGGSLRLSCAASGRTFKDYAMGWYRPAPGKERELFAAISRGGSTNYADSVKGRFTISRDNAKNTVYLQVNSLKPEDTAVYYCARRYIVQSGDDYWGQGTQVTVSS”, the “polyreactivity (PSR sort gate)” value is listed as “low polyreactivity”.

“QVQLVESGGGLVQAGGSLRLSCAASGRTFKFYAMGWYRQAPGKERELVAAITSDGSTYYADSVKGRFTISRDNAKNTVYLQMNSQKPEDTAVYYCAKRSNTGRGYDYWGQGTQVTVSS”: the “polyreactivity (PSR sort gate)” value is recorded as “high polyreactivity”. In the case of “QVQLVESGGGLVQAGGSLRLSCAASGRTFKFYAMGWYRQAPGKERELVARITSNSGSTYYADSVKGRFTISRDTAKNTVYLQMTSLKPEDTAVYYCAVRGTLGSYWYTYYYWGQGTQVTVSS” it was “high polyreactivity”; in that of “QVQLVESGGGLVQAGGSLRLSCAASGRTFKHYAMGWYRQAPGKERELVAAITSGGSTYYADSVKGRFTISRDNAKNTVYLLMNSLIPEDTAVYYCNKESYFDTYRRYDSWGHGTQVTVSS”, “low polyreactivity”.

“QVQLVESGGGLVQAGGSLRLSCAASGRTFKIHAMGWYRQATGKERELVAAISTSGGSTYYADSVKGRLTISRDNAKNTVYLQMNSLKPEDTAVYYCNAPVFRVGRPEYDYWGQGTQVTVSS”: the “polyreactivity (PSR sort gate)” value is given as “high polyreactivity”.

Turning to “QVQLVESGGGLVQAGGSLRLSCAASGRTFKINAMGWYRPAPGKERELVAAISRGGGSTYADSVKGRFTISRDNAKNTVYLQMNSLKPEDTAVYYCAARVYGTRKINYSWGQGTQVTVSS”, the “polyreactivity (PSR sort gate)” value is reported as “high polyreactivity”. For “QVQLVESGGGLVQAGGSLRLSCAASGRTFKINAMGWYRQAPGKERELVAAIRRRGGSTYYADSVKGRFTISRDNAKNTVYLQMNSLKPEDTAVYYCAKTSWPYRVPSDSVAYDYWGQGTQVTVSS” the value was “low polyreactivity”; for “QVQLVESGGGLVQAGGSLRLSCAASGRTFKIYTMGWYRPAPGKERELVAAISRGGSTYYADSVKGRFTISRDNAKNTVYLQMNSLKPEDTAVYYCAVDLYYLSSASTRQVRRDYWGQGTQVTVSS”, “high polyreactivity”. In the case of “QVQLVESGGGLVQAGGSLRLSCAASGRTFKLYAMGWYRQAPGKERALVAAITESGGSTYYADSVKGRFTISRDNAKNTVYLQMNSLKPEDTAVYYCAAYASAGTRGGYDYWGQGTQVTVSS” it was “low polyreactivity”. In the case of “QVQLVESGGGLVQAGGSLRLSCAASGRTFKPYAMGWYRPAPGKDRELVAAISTRGGSTYFADSVKGRFTISRDNAKNTVYLQMNSLKPEDTAVYYCAATQPVRDYDYWGQGTQVTVSS”, the “polyreactivity (PSR sort gate)” value was “low polyreactivity”. For the sequence “QVQLVESGGGLVQAGGSLRLSCAASGRTFKPYAMGWYRQAPGKERELVAAISTGGSTNYADSVKGRFTISRDNAKNTVYLQMKSLKPEDTAVYYCAALYSYFWLIIDYGYWGQGTQVTVSS”, the “polyreactivity (PSR sort gate)” value is given as “low polyreactivity”. For “QVQLVESGGGLVQAGGSLRLSCAASGRTFKPYAMGWYRQAPGKERELVAVITSNGSSTYYADSVKGRFTISRDNAKNTVYLQMNSLKPEDTAVYYCATKLTYTLTSGAYAYDYWGQGTQVTLSS” the value was “low polyreactivity”; for “QVQLVESGGGLVQAGGSLRLSCAASGRTFKQYAMGWYRQAPGKERELVAAISRTGGRTYYADSVKGRFTISRDNAKNTVYLQMNSLKPEDTAVYYCNAVYYWYKGDYWGQGTQVTVSS”, “high polyreactivity”; for “QVQLVESGGGLVQAGGSLRLSCAASGRTFKRYAMGWYRQAPGKERELVAVITSGGSTYYADSVKGRFTISRDNAKNTVYLQMNSLKPEDTAVYYCAARYGVRIWHDALYGYWGQGTQVTVSS”, “high polyreactivity”.

In the case of “QVQLVESGGGLVQAGGSLRLSCAASGRTFKTYSMGWYRQAPGKERELVASISGSGSSTYYADSVKGRFTISRDNAKNSVYLQMKSRKPEDTAVYYCNAARSQGYEYATYGYWGQGTQVTVSS”, the “polyreactivity (PSR sort gate)” value is “low polyreactivity”. For “QVQLVESGGGLVQAGGSLRLSCAASGRTFKTYVMGWYRQAPGKERELVAGITSGGGSTYYADSVKGRFTISRDNAKITVYLQMNSLKPEDTAVYYCAAVSKDGFWVSYYYWGQGTQVTVSS” the value was “high polyreactivity”; for “QVQLVESGGGLVQAGGSLRLSCAASGRTFKVNAMGWYRQAPGKERELVAAITYSGGGTYYADSVKGRFTISRDNAKNTVYLQMNSLKPEDTAVYYCAAPVYTWYHRYDYWGQGTQVTVSS”, “high polyreactivity”. In the case of “QVQLVESGGGLVQAGGSLRLSCAASGRTFKVYAMGWYRQAPWKERDLVAAISFSGGSTYYADSVKGRFTISRDNAKNTDYLQMNSLKPEDTAVYYCAAKRYGEYRARGYYYWGQVTQVTVSS” it was “high polyreactivity”; in that of “QVQLVESGGGLVQAGGSLRLSCAASGRTFKYNAMGWYIQAPGKERELVAAISSRGGSTYYADSVKGRFTISRDNAKNTVYLQMNSLKPEDTAVYYCAKATSSSEYGYDYWGQGTQVTVSS”, “high polyreactivity”.
